This note sets out measurements from US20180016337A1 (HELIX BIOPHARMA, published 2018).

The assay addresses T1, CEACAM6 antigen (carcinoembryonic antigen related cell adhesion molecule 6) (human, UniProt P40199 35-320).
T1 construct: also called CD66c
T1 sequence: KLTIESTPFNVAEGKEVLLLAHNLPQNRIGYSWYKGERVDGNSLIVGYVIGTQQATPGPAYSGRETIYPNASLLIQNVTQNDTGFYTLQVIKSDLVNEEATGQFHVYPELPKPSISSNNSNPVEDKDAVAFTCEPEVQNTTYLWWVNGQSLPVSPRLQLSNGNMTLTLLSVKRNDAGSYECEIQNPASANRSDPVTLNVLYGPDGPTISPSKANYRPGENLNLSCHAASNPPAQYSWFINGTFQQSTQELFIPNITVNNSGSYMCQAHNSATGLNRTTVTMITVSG
Nature of the assay: SPR, format not stated. A general note: Surface plasmon resonance follows binding to a sensor surface in real time, without labels.

B1: 2A3 camelid single domain antibody (anti-CEACAM6) (VHH)
VHH: QVKLEESGGGLVQAGGSLRLSCRTSGRTNSVYTMGWFRQAPGKEREFVAQIMWGAGTNTHYADSVKGRFTISRDSAESTVYLQMNSLKPEDTAVYYCAANRGIPIAGRQYDYWGQGTQVTVSS
notes: Llama sdAb isolated from a whole cancer cell immunized library; also called 2A3 antibody; 2A3 anti-CEACAM6 antibody
B1 had a Kd of 5 nM.

As usually defined, the Kd is the constant that tells how readily two partners part at equilibrium.
